± gives the uncertainty stated by the source.
Assay: self-splicing fitness, log relative to wild type (ln ratio); higher = more splicing; Tetrahymena group I intron in knt gene, E. coli kanamycin selection, DiMSum; sequences stand for … in CUCUCU…GGAGGGAAAAGUUAUCAGGCAUGCACCUGGUAGCUAGUCUUUAAACCAAUAGAUUGCAUCGGUUUAAAAGGCAAGACCGUCAAAUUGCGGGAAAGGGGUCAACAGCCGUUCAGUACCAAGUCUCAGGGGAAACUUUGAGAUGGCCUUGCAAAGGGUAUGGUAAUAAGCUGACGGACAUGGUCCUAACCACGCAGCCAAGUCCUAAGUCAACAGAUCUUCUGUUGAUAUGGAUGCAGUUCACAGACUAAAUGUCGGUCGGGGAAGAUGUAUUCUUCUCAUAAGAUAUAGUCGGACCUCUCCUUAAUGGGAGCUAGCGGAUGAAGUGAUGCAACACUGGAGCCGCUGGGAACUAAUUUGUAUGCGAAAGUAUAUUGAUUAGUUUUGGAGUACUCGUGGUCG
In short: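 Pooled colonies went to amplicon sequencing on an Illumina HiSeq 2500 after six replicate transformations. The plates were LB agar with 100 μg/mL carbenicillin, 50 μM IPTG and 0.2% rhamnose, with or without 25 μg/mL kanamycin, incubated overnight at 37°C or 30°C. The E. coli BL21(DE3) library had all eight P1ex-region intron nucleotides randomised, the intron placed in the knt kanamycin-resistance gene on pET-22b(+). DiMSum fitness is the error-weighted combination of replicate fold changes, kanamycin against none, normalised to wild type.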

GUCUAGCAAUAUUACGUUUC
self-splicing fitness (ln) (30 °C): -0.78 ± 0.057 | self-splicing fitness (ln) (37 °C): -0.0328 ± 0.073

GUGAAGCAAUAUUACGAAAC
self-splicing fitness (ln) (30 °C): -1.66 ± 0.11 | self-splicing fitness (ln) (37 °C): -0.943 ± 0.14

GUGAAGCAAUAUUACGACUA
self-splicing fitness (ln) (30 °C): -0.0623 ± 0.096 | self-splicing fitness (ln) (37 °C): 0.462 ± 0.14

GUGAAGCAAUAUUACGAUCU
self-splicing fitness (ln) (30 °C): -1.26 ± 0.13 | self-splicing fitness (ln) (37 °C): -0.0185 ± 0.12

GUGAAGCAAUAUUACGCAAA
self-splicing fitness (ln) (30 °C): -2.12 ± 0.12 | self-splicing fitness (ln) (37 °C): -1.52 ± 0.16

GUGAAGCAAUAUUACGCACU
self-splicing fitness (ln) (30 °C): -3.68 ± 0.47 | self-splicing fitness (ln) (37 °C): -2.19 ± 0.29

GUGAAGCAAUAUUACGCAGA
self-splicing fitness (ln) (30 °C): -3.85 ± 0.25 | self-splicing fitness (ln) (37 °C): -2.39 ± 0.25

GUGAAGCAAUAUUACGCAUU
self-splicing fitness (ln) (30 °C): -2.66 ± 0.27 | self-splicing fitness (ln) (37 °C): -1.05 ± 0.15

GUGAAGCAAUAUUACGCGCG
self-splicing fitness (ln) (30 °C): -0.674 ± 0.083 | self-splicing fitness (ln) (37 °C): 0.0224 ± 0.12

GUGAAGCAAUAUUACGCUAA
self-splicing fitness (ln) (30 °C): -1.25 ± 0.15 | self-splicing fitness (ln) (37 °C): -0.0384 ± 0.17

GUGAAGCAAUAUUACGCUAU
self-splicing fitness (ln) (30 °C): -1.95 ± 0.15 | self-splicing fitness (ln) (37 °C): -0.0655 ± 0.15

GUGAAGCAAUAUUACGGCAA
self-splicing fitness (ln) (30 °C): 0.587 ± 0.084 | self-splicing fitness (ln) (37 °C): 0.552 ± 0.11

GUGAAGCAAUAUUACGGGCG
self-splicing fitness (ln) (30 °C): -0.39 ± 0.052 | self-splicing fitness (ln) (37 °C): -0.217 ± 0.065

GUGAAGCAAUAUUACGGGGA
self-splicing fitness (ln) (30 °C): -2.85 ± 0.22 | self-splicing fitness (ln) (37 °C): -2.64 ± 0.29

GUGAAGCAAUAUUACGGGUC
self-splicing fitness (ln) (30 °C): -2.26 ± 0.21 | self-splicing fitness (ln) (37 °C): -2.21 ± 0.28

GUGAAGCAAUAUUACGGUUA
self-splicing fitness (ln) (30 °C): -0.24 ± 0.054 | self-splicing fitness (ln) (37 °C): 0.132 ± 0.086

GUGAAGCAAUAUUACGUAGA
self-splicing fitness (ln) (30 °C): -2.33 ± 0.17 | self-splicing fitness (ln) (37 °C): -0.683 ± 0.17

GUGAAGCAAUAUUACGUCCA
self-splicing fitness (ln) (30 °C): -0.721 ± 0.16 | self-splicing fitness (ln) (37 °C): 0.775 ± 0.22

GUGAAGCAAUAUUACGUCUU
self-splicing fitness (ln) (30 °C): -1.6 ± 0.067 | self-splicing fitness (ln) (37 °C): -0.642 ± 0.078

GUGAAGCAAUAUUACGUGGG
self-splicing fitness (ln) (30 °C): -3.96 ± 0.2 | self-splicing fitness (ln) (37 °C): -2.13 ± 0.15

GUGCAGCAAUAUUACGAAGA
self-splicing fitness (ln) (30 °C): -2.35 ± 0.46 | self-splicing fitness (ln) (37 °C): -0.855 ± 0.15

— the supplement of paper PMC7877785
